According to paper PMC5497066, “GroEL actively stimulates folding of the endogenous substrate protein PepQ” (Nature Communications, 2017):
Blank lines part the entries; values can stand above or below the binder they belong to.

What was measured:
[1] = target: T1, wild-type GroEL tetradecamer (E. coli, UniProt P0A6F5 1-548); assay: cryo-EM structure; acid-urea denatured PepQ (7 μM final) titrated into GroEL or Δ526 (8 μM tetradecamers) in TKM buffer, no nucleotide, room temperature 5 min; asymmetric 3D classification and refinement; conditions: both partners purified
T1 construct: GroEL (Hsp60 chaperonin), E. coli, homo-oligomer of 14 subunits of 57 kDa in two seven-membered rings; also called WT; full-length GroEL; source: E. coli BL21, purified (anion exchange, ammonium sulfate precipitation, Affi Blue Gel); copies: 14

[2] = target: single-ring truncation mutant, SRΔ526 (E. coli); assay: cell-based or functional assay
[3] = target: T2, asymmetric wild-type GroEL-GroES-ADP complex (E. coli, UniProt P0A6F5 1-548; P0A6F9 1-97); assay: protease protection (encapsulation); denatured PepQ-24F (100 nM) bound to wild-type or Δ526 GroEL-GroES-ADP bullets (200 nM) or full-length or Δ526 single-ring GroEL (300 nM) with GroES (600 nM); single turnover with ATP (2 mM), quenched after 10 s; unencapsulated PepQ digested with Proteinase K; SDS-PAGE, fluorescein scan; conditions: both partners purified
T2 construct: GroEL, E. coli, wild type; GroES, ring-shaped co-chaperonin, E. coli; GroES caps one ring; also called GroEL-GroES-ADP bullets; source: GroEL from E. coli BL21 and GroES from E. coli BL21(DE3), each purified; complex formed beforehand with ADP; copies: 14 +

[4] = target: T1, wild-type GroEL tetradecamer; assay: fluorescence correlation spectroscopy; acid-urea denatured PepQ-24TMR (2 nM) with GroEL (1 μM) in TKM buffer (50 mM Tris-HCl, pH 7.4, 50 mM KOAc, 10 mM Mg(OAc)2, 2 mM DTT); shift in diffusion time; conditions: both partners purified

binding result [1]: binds | observed folding rate constant of PepQ by recovery of enzymatic activity, bound to SRΔ526 (300 nM) and refolded with GroES (600 nM) and ATP (2 mM) [2]: 0.332 min⁻¹
B1: wild type E. coli PepQ (enzyme, UniProt P21165 1-443, looked up)
chain: MESLASLYKNHIATLQERTRDALARFKLDALLIHSGELFNVFLDDHPYPFKVNPQFKAWVPVTQVPNCWLLVDGVNKPKLWFYLPVDYWHNVEPLPTSFWTEDVEVIALPKADGIGSLLPAARGNIGYIGPVPERALQLGIEASNINPKGVIDYLHYYRSFKTEYELACMREAQKMAVNGHRAAEEAFRSGMSEFDINIAYLTATGHRDTDVPYSNIVALNEHAAVLHYTKLDHQAPEEMRSFLLDAGAEYNGYAADLTRTWSAKSDNDYAQLVKDVNDEQLALIATMKAGVSYVDYHIQFHQRIAKLLRKHQIITDMSEEAMVENDLTGPFMPHGIGHPLGLQVHDVAGFMQDDSGTHLAAPAKYPYLRCTRILQPGMVLTIEPGIYFIESLLAPWREGQFSKHFNWQKIEALKPFGGIRIEDNVVIHENNVENMTRDLKLA
notes: PepQ (Xaa-Pro dipeptidase, prolidase), E. coli, monomer of about 50 kDa; native form is a homodimer; also called prolidase; metalloprotease PepQ; source: E. coli BL21(DE3), purified (anion exchange, ammonium sulfate, Phenyl Sepharose)

binding result [3]: binds
B2: PepQ-24F (enzyme, E. coli, UniProt P21165 1-443, looked up)
chain: MESLASLYKNHIATLQERTRDALCRFKLDALLIHSGELFNVFLDDHPYPFKVNPQFKAWVPVTQVPNCWLLVDGVNKPKLWFYLPVDYWHNVEPLPTSFWTEDVEVIALPKADGIGSLLPAARGNIGYIGPVPERALQLGIEASNINPKGVIDYLHYYRSFKTEYELACMREAQKMAVNGHRAAEEAFRSGMSEFDINIAYLTATGHRDTDVPYSNIVALNEHAAVLHYTKLDHQAPEEMRSFLLDAGAEYNGYAADLTRTWSAKSDNDYAQLVKDVNDEQLALIATMKAGVSYVDYHIQFHQRIAKLLRKHQIITDMSEEAMVENDLTGPFMPHGIGHPLGLQVHDVAGFMQDDSGTHLAAPAKYPYLRCTRILQPGMVLTIEPGIYFIESLLAPWREGQFSKHFNWQKIEALKPFGGIRIEDNVVIHENNVENMTRDLKLA
modifications: fluorescein (5-iodoacetamidofluorescein) on the cysteine at position 24
notes: PepQ, E. coli, with the surface-exposed cysteine A24C; also called Fluorescein-labelled PepQ; A24C PepQ labelled with fluorescein; source: E. coli BL21(DE3), purified, labelled and re-purified (PD-10, MonoQ)

binding result [4]: binds
B3: PepQ-24TMR (enzyme, E. coli, UniProt P21165 1-443, looked up)
chain: MESLASLYKNHIATLQERTRDALCRFKLDALLIHSGELFNVFLDDHPYPFKVNPQFKAWVPVTQVPNCWLLVDGVNKPKLWFYLPVDYWHNVEPLPTSFWTEDVEVIALPKADGIGSLLPAARGNIGYIGPVPERALQLGIEASNINPKGVIDYLHYYRSFKTEYELACMREAQKMAVNGHRAAEEAFRSGMSEFDINIAYLTATGHRDTDVPYSNIVALNEHAAVLHYTKLDHQAPEEMRSFLLDAGAEYNGYAADLTRTWSAKSDNDYAQLVKDVNDEQLALIATMKAGVSYVDYHIQFHQRIAKLLRKHQIITDMSEEAMVENDLTGPFMPHGIGHPLGLQVHDVAGFMQDDSGTHLAAPAKYPYLRCTRILQPGMVLTIEPGIYFIESLLAPWREGQFSKHFNWQKIEALKPFGGIRIEDNVVIHENNVENMTRDLKLA
modifications: tetramethylrhodamine (tetramethylrhodamine-5-iodoacetamide) on the cysteine at position 24
notes: PepQ, E. coli, with the surface-exposed cysteine A24C in the first helix of the N-terminal domain; also called PepQ-TMR; A24C PepQ labelled with tetramethylrhodamine; source: E. coli BL21(DE3), purified, labelled and re-purified (PD-10, MonoQ)
